Assay results published in the supplement of paper PMC10724198.

Experiments:
Saccharomyces cerevisiae [1] = assay: protein stability index of tFT-peptide fusion in wild type (PSI (0-1 scale)); higher = more stable (slower turnover); conditions: genetic background: wild type
Experimental: (§1)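 MPS profiling in S. cerevisiae of two library types built from selected 12-aa C-degron peptides (IN1, IN2, LN1, LN3, VN2, R1-R5, W1-W3, Atg1 and Rpa12 C-termini): saturation mutagenesis libraries and C-terminal +1 capping libraries (13 aa). Each peptide is fused to the C-terminus of a sfGFP-mCherry timer, after a GGGS linker. Cells are FACS-sorted into 8 mCherry/sfGFP bins and sequenced. PSI runs from 0 (unstable) to 1 (stable), measured once in wild type and in the das1Δ or doa10Δ background.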

Saccharomyces cerevisiae [2] = assay: protein stability index of tFT-peptide fusion in deletion strain of DAS1 (PSI (0-1 scale)); higher = more stable (slower turnover)
Experimental: as §1
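Throughout, for protein stability index of tFT-peptide fusion in deletion strain of DAS1: PSI is a weighted mean of each variant's read distribution over the sorted stability bins, computed only for variants having over 10 reads in total.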
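Throughout, for protein stability index of tFT-peptide fusion in wild type: PSI derived as read-weighted mean over the 8 sorting bins, only variants exceeding 10 total reads kept, mCherry placed adjacent to the peptide and sfGFP distal.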

Q: KKHKKGQKQKIG was tested. Which protein stability index (Saccharomyces cerevisiae [1]) did it give?
A: 0.226

Q: What about the protein stability index (Saccharomyces cerevisiae [2]) of the same sequence?
A: 0.591

Q: How did the protein stability index (Saccharomyces cerevisiae [1]) turn out when PSKRNHLIKLLN was run?
A: 0.145

Q: What about the protein stability index (Saccharomyces cerevisiae [2]) of the same sequence?
A: 0.61

Q: Which results are given for RLIQPLPVQFLNC?
A: protein stability index (Saccharomyces cerevisiae [1]): 0.486; protein stability index (Saccharomyces cerevisiae [2]): 0.635

Q: Which protein stability index (Saccharomyces cerevisiae [1]) does the source give for FIMRWTFRYWVN here?
A: 0.0251

Q: And the protein stability index (Saccharomyces cerevisiae [2])?
A: 0.251

Q: What does the source list for LVVYYSCVACIN?
A: protein stability index (Saccharomyces cerevisiae [1]): 0.0106; protein stability index (Saccharomyces cerevisiae [2]): 0.0266

Q: What does the source list for RLIQPLPDQFLN?
A: protein stability index (Saccharomyces cerevisiae [1]): 0.61; protein stability index (Saccharomyces cerevisiae [2]): 0.631

Q: Which results are given for LKRLRQKMNHQN?
A: protein stability index (Saccharomyces cerevisiae [1]): 0.202; protein stability index (Saccharomyces cerevisiae [2]): 0.666

Q: For FRWRVGLWRGAS, which protein stability index (Saccharomyces cerevisiae [1]) is on record?
A: 0.0957

Q: And the protein stability index (Saccharomyces cerevisiae [2])?
A: 0.668

Q: How did the protein stability index (Saccharomyces cerevisiae [1]) turn out when RLISPLPVQFLN was run?
A: 0.0608

Q: And the protein stability index (Saccharomyces cerevisiae [2])?
A: 0.622

Q: Which protein stability index (Saccharomyces cerevisiae [1]) does the source give for KKHKFGQKQKIN here?
A: 0.0916

Q: And the protein stability index (Saccharomyces cerevisiae [2])?
A: 0.578

Q: With CTSPGYKFRTNN as the sequence, how does the protein stability index (Saccharomyces cerevisiae [1]) read?
A: 0.254

Q: What about the protein stability index (Saccharomyces cerevisiae [2]) of the same sequence?
A: 0.686

Q: With PSLAASFWRNVG as the sequence, how does the protein stability index (Saccharomyces cerevisiae [1]) read?
A: 0.17

Q: What about the protein stability index (Saccharomyces cerevisiae [2]) of the same sequence?
A: 0.7

Q: How did the protein stability index (Saccharomyces cerevisiae [1]) turn out when VRGAVCGWRLVG was run?
A: 0.125

Q: And the protein stability index (Saccharomyces cerevisiae [2])?
A: 0.673

Q: Which protein stability index (Saccharomyces cerevisiae [1]) does the source give for PDKRNHLIKLLNA here?
A: 0.13

Q: What about the protein stability index (Saccharomyces cerevisiae [2]) of the same sequence?
A: 0.665

Q: Which protein stability index (Saccharomyces cerevisiae [1]) does the source give for PDKRNHLIFLLN here?
A: 0.116

Q: And the protein stability index (Saccharomyces cerevisiae [2])?
A: 0.687

Q: With CTSHGYKFRTNN as the sequence, how does the protein stability index (Saccharomyces cerevisiae [1]) read?
A: 0.242

Q: What about the protein stability index (Saccharomyces cerevisiae [2]) of the same sequence?
A: 0.689

Q: What does the source list for FSMRWTFRYWAN?
A: protein stability index (Saccharomyces cerevisiae [1]): 0.101; protein stability index (Saccharomyces cerevisiae [2]): 0.537

Q: What does the source list for LKILRQKMNHQE?
A: protein stability index (Saccharomyces cerevisiae [1]): 0.507; protein stability index (Saccharomyces cerevisiae [2]): 0.675

Q: PSLQASFWRVVG was tested. Which protein stability index (Saccharomyces cerevisiae [1]) did it give?
A: 0.111

Q: What about the protein stability index (Saccharomyces cerevisiae [2]) of the same sequence?
A: 0.633

Q: How did the protein stability index (Saccharomyces cerevisiae [1]) turn out when LKILRQKMNHQM was run?
A: 0.244

Q: What about the protein stability index (Saccharomyces cerevisiae [2]) of the same sequence?
A: 0.656

Q: With CTSCQYKFRTNN as the sequence, how does the protein stability index (Saccharomyces cerevisiae [1]) read?
A: 0.334

Q: What about the protein stability index (Saccharomyces cerevisiae [2]) of the same sequence?
A: 0.689

Q: RLIQPLPVQFKN was tested. Which protein stability index (Saccharomyces cerevisiae [1]) did it give?
A: 0.618

Q: What about the protein stability index (Saccharomyces cerevisiae [2]) of the same sequence?
A: 0.648

Q: What does the source list for KKHKKGQKQKINF?
A: protein stability index (Saccharomyces cerevisiae [1]): 0.652; protein stability index (Saccharomyces cerevisiae [2]): 0.669

Q: LKILRQKHNHQN was tested. Which protein stability index (Saccharomyces cerevisiae [1]) did it give?
A: 0.322

Q: And the protein stability index (Saccharomyces cerevisiae [2])?
A: 0.67

Q: How did the protein stability index (Saccharomyces cerevisiae [1]) turn out when RLIQPLRVQFLN was run?
A: 0.06

Q: And the protein stability index (Saccharomyces cerevisiae [2])?
A: 0.593

Q: What does the source list for LKILRQKMNTQN?
A: protein stability index (Saccharomyces cerevisiae [1]): 0.212; protein stability index (Saccharomyces cerevisiae [2]): 0.675

Q: How did the protein stability index (Saccharomyces cerevisiae [1]) turn out when LKILRNKMNHQN was run?
A: 0.269

Q: And the protein stability index (Saccharomyces cerevisiae [2])?
A: 0.703

Q: VRGAVGGWRLVK was tested. Which protein stability index (Saccharomyces cerevisiae [1]) did it give?
A: 0.668

Q: What about the protein stability index (Saccharomyces cerevisiae [2]) of the same sequence?
A: 0.689

Q: How did the protein stability index (Saccharomyces cerevisiae [1]) turn out when KKHKKGQKQKII was run?
A: 0.12

Q: And the protein stability index (Saccharomyces cerevisiae [2])?
A: 0.632

Q: KKHKKGQKQKYN was tested. Which protein stability index (Saccharomyces cerevisiae [1]) did it give?
A: 0.309

Q: What about the protein stability index (Saccharomyces cerevisiae [2]) of the same sequence?
A: 0.586

Q: For PDKRNHLIKMLN, which protein stability index (Saccharomyces cerevisiae [1]) is on record?
A: 0.0821

Q: What about the protein stability index (Saccharomyces cerevisiae [2]) of the same sequence?
A: 0.598

Q: For VRFAVGGWRLVG, which protein stability index (Saccharomyces cerevisiae [1]) is on record?
A: 0.0977

Q: What about the protein stability index (Saccharomyces cerevisiae [2]) of the same sequence?
A: 0.678

Q: Which results are given for RLIQPLFVQFLN?
A: protein stability index (Saccharomyces cerevisiae [1]): 0.0762; protein stability index (Saccharomyces cerevisiae [2]): 0.621

Q: What does the source list for LKILRQKGNHQN?
A: protein stability index (Saccharomyces cerevisiae [1]): 0.655; protein stability index (Saccharomyces cerevisiae [2]): 0.676

Q: Which protein stability index (Saccharomyces cerevisiae [1]) does the source give for PDKRLHLIKLLN here?
A: 0.126

Q: What about the protein stability index (Saccharomyces cerevisiae [2]) of the same sequence?
A: 0.629

Q: How did the protein stability index (Saccharomyces cerevisiae [1]) turn out when KKHKKGQKQKINK was run?
A: 0.647

Q: What about the protein stability index (Saccharomyces cerevisiae [2]) of the same sequence?
A: 0.659

Q: Which results are given for LKTLRQKMNHQN?
A: protein stability index (Saccharomyces cerevisiae [1]): 0.205; protein stability index (Saccharomyces cerevisiae [2]): 0.672

Q: How did the protein stability index (Saccharomyces cerevisiae [1]) turn out when KKHKKGQKQKINM was run?
A: 0.638

Q: What about the protein stability index (Saccharomyces cerevisiae [2]) of the same sequence?
A: 0.662

Q: How did the protein stability index (Saccharomyces cerevisiae [1]) turn out when VRGASGGWRLVG was run?
A: 0.172

Q: What about the protein stability index (Saccharomyces cerevisiae [2]) of the same sequence?
A: 0.674

Q: CTSCGYKFRANN was tested. Which protein stability index (Saccharomyces cerevisiae [1]) did it give?
A: 0.538

Q: What about the protein stability index (Saccharomyces cerevisiae [2]) of the same sequence?
A: 0.698

Q: How did the protein stability index (Saccharomyces cerevisiae [1]) turn out when CTSCGYKPRTNN was run?
A: 0.693

Q: What about the protein stability index (Saccharomyces cerevisiae [2]) of the same sequence?
A: 0.683

Q: Which results are given for CASCGYKFRTNN?
A: protein stability index (Saccharomyces cerevisiae [1]): 0.281; protein stability index (Saccharomyces cerevisiae [2]): 0.714

Q: What does the source list for FSMRWTFLYWVN?
A: protein stability index (Saccharomyces cerevisiae [1]): 0.0672; protein stability index (Saccharomyces cerevisiae [2]): 0.383

Q: How did the protein stability index (Saccharomyces cerevisiae [1]) turn out when PMLAASFWRVVG was run?
A: 0.162

Q: What about the protein stability index (Saccharomyces cerevisiae [2]) of the same sequence?
A: 0.702

Q: How did the protein stability index (Saccharomyces cerevisiae [1]) turn out when FSMRWTFKYWVN was run?
A: 0.0423

Q: What about the protein stability index (Saccharomyces cerevisiae [2]) of the same sequence?
A: 0.485

Q: How did the protein stability index (Saccharomyces cerevisiae [1]) turn out when KKHKLGQKQKIN was run?
A: 0.0725

Q: What about the protein stability index (Saccharomyces cerevisiae [2]) of the same sequence?
A: 0.58

Q: What does the source list for RLIQPLWVQFLN?
A: protein stability index (Saccharomyces cerevisiae [1]): 0.0634; protein stability index (Saccharomyces cerevisiae [2]): 0.569

Q: What does the source list for VRGAVGGWRLVGA?
A: protein stability index (Saccharomyces cerevisiae [1]): 0.524; protein stability index (Saccharomyces cerevisiae [2]): 0.692

Q: For FSFRWTFRYWVN, which protein stability index (Saccharomyces cerevisiae [1]) is on record?
A: 0.089

Q: And the protein stability index (Saccharomyces cerevisiae [2])?
A: 0.54
